Measurements reported in the DeepSol protein solubility set.

Test: soluble on expression in E. coli; label from the status in PepcDB or PDB records
In the case of “MKITNPVLKGFNPDPSICRAGEDYYIAVSTFEWFPGVQIHHSKDLVNWHLVAHPLQRVSQLDMKGNPNSGGVWAPCLSYSDGKFWLIYTDVKVVDGAWKDCHNYLVTCETINGDWSEPIKLNSSGFDASLFHDTDGKKYLLNMLWDHRIDRHSFGGIVIQEYSDKEQKLIGKPKVIFEGTDRKLTEAPHLYHIGNYYYLLTAEGGTRYEHAATIARSANIEGPYEVHPDNPILTSWHDPGNPLQKCGHASIVQTHTDEWYLAHLTGRPIHPDDDSIFQQRGYCPLGRETAIQKLYWKDEWPYVVGGKEGSLEVDAPSIPETIFEATYPEVDEFEDSTLNINFQTLRIPFTNELGSLTQAPNHLRLFGHESLTSTFTQAFVARRWQSLHFEAETAVEFYPENFQQAAGLVNYYNTENWTALQVTHDEELGRILELTICDNFSFSQPLNNKIVIPREVKYVYLRVNIEKDKYYYFYSFNKEDWHKIDIALESKKLSDDYIRGGGFFTGAFVGMQCQDTGGNHIPADFRYFRYKEK”, the “soluble on expression in E. coli” value is reported as “soluble”. With “MLKMKNNGGGCLAYISDCSVYLPVWKLKRDEISKETGMPSMGGERAVAHWDEDSITMAVEAARKFDGAFDAVIFASSSPPFRIKQCASFIASALDLPDSTFTMDITDTMRAATDALITANEFVDSGRFSRVLVVAGDKIPTKPGTLYEQLYGDAAAAVVVEKEGGAKILGYSTSTKPLPGSWMLADDDTVRDYDMRVDARYGYAASVQKAAMPLFAKLGLSPADIDRIVASAPDPKSYQGLLKAVGARPEEFYFDSVGIAGSAHPLLLLATQLEREGRILLGGYGEGADVIAVEIEQAMDSNMGRMLESRKEISYGDYLFNRGFVGVRDAPDRPSLTKFWRDEKSIIRFYGMKCKSCGTVSYPISRCCIECGAKDNYEEVRLGERGKIYTFTIDYLVMPGNYAGDGVHPHFIAVVDLDGGGRVLFELTDTLRDFSGVECDAEVERTFRLLFEKNRFRYYGWKARLPRLEHHHHHH” the “soluble on expression in E. coli” value was “soluble”. With “MDTTYGPPAPALSGLTLGIREYSLFQAVLLVIDRLRDAHPHLSEDDLYDQLEFQANPSLGFPSSDVSRVEFFHEHGQMRARMQFNLIGLVGSGSPLPAFYGEQALGDSEDGNPTRNFLDLFHHRLQRLMLPIWKKYRYRASFESGALDPFSAQLFALIGLGGEEIRRAQELNWKRLLPYLGLLSLRAHSAALIEAVLRYYFKHAELTIEQCIERRVEILDEQRNRLGSANSMLGEDLVLGDHVRDRSGKFRIHIRELDWQRFHEFLPIGFGYQPLCALVRFTLRDPLDYDIRLVLRQEEIRELRIGEQNACRLGWTSWLGREKADGVVTLGSKIH” the “soluble on expression in E. coli” value was “not soluble”. In the case of “MALPGERFHVLAQLEHLQSKYTGTAMRHEPSRMDCESAPRHSRLSNVSSRNEHVYCRCGEREPSSNPLQSDKSHDSAVWTASREESS”, the “soluble on expression in E. coli” value is reported as “not soluble”. With “MFKGDMNKKRAKALQKVKEAITLHGGQTILSTGITGDDARLAKAVCEAGVKLLEPNHPALALARGHKGVSNMHAAEQIRHEITNSQMAEAVHGVRNVVPDDIFITVGIAGGFTETLPVPLSEKEILEIARAGADGLHTHKSDWDDLQDIVNLAHQYGLTVDAYIGHPDDLHTFGIPARTPEEVASVAKRMQDIGVDMIGLMTGMSYEGVAAGDIPQMIKDRLRALVGAVDVPTLAEGGINLANAKAFKDTGVNILVVGTAIDNMVCNAAKEAVTPFIVH” the “soluble on expression in E. coli” value was “soluble”. For “MIQSDLDLFGPQPQRLASHTVLLPGFALAETEALLDALRPVLRAAPFRHMYTPGGLRMAVALTNCGTLGWVSDQHGYRYSPSDPVSGQPWPALPPVLLALASRAAAMAGFDGFVPDACLVNHYLPGTRLSLHQDRDEQDFGQPIVSVSLGLPAVFLFGGLQRADKAQRIALSHGDVLVWGGVDRLRFHGVLPIKPGVHPRLGERRINLTLRKAGALEHHHHHH”, the “soluble on expression in E. coli” value was “not soluble”. For “MGSDKIHHHHHHMFISDLHIGDGSAKDDFFFDKELVNFIEDMSQTEDVELFVVGDGFEILESRTVKEIGLVSFEEVVETLDETVIDEIEKKHSEVFETLKKFSRRHRVYYVVGNHDYHILKNKKLQNALKNRFEKFEILPYYYDPHSKLLVLHGNQFDVINRFTVDRKTKKVIPPLGDYIARYMMINFDSQVVNFAPEDVIRDYDNVRPLLDVFHWFDYVTEIYDLSVDLVELWLKSFLSMLKTREARKWMKNNFPRTHWLSKVFVNRFGGVELGKVLVRSIYTLRKLRRVDYLQKWAKSILKGNLRWKEFMTGYSGDLHEVEEVDILVMGHVHHFAYRIVPTTQGKKLYVNCGSWRPVLEKLGIRKRHGFHRKAELPKIIMDFSGKNVEVKASITNVLGKIQGGDL”, the “soluble on expression in E. coli” value was “not soluble”. In the case of “MPDLMHSELTMSGPEQSLLAGALLGAGLPADAHRHLELAGRDYQSEALAEQHLREAHLLAPDHAAVLIGLYRFYFYKGRLGEALEVAQACLCKAARDNGLASDWRKVRRGDAEFSSYSAVLPRFYLFALKAYAYLQMRLGQLDEGHAAVEKLLELDPTDKVGAAVLLDVWRRIGLEHHHHHH”, the “soluble on expression in E. coli” value is reported as “not soluble”. With “MNTRSSLSEEQREQLVGLCEQDLDFTTTASRIGGRHTLARSLYHCWLLHGRLCLVEKPTKKHYSFEIKKEVVDRFLAGETRMNLAKEFKLSSPQQVKDWVSKWHKRR” the “soluble on expression in E. coli” value was “not soluble”. In the case of “MGSDKIHHHHHHMYPRYSEINVKEALSDTPVVFVMGPRQAGKTTLVKSLIMDMGSENWTYITLDDQAQFEIAQADPVGFVRNLPSTRIALDEVQRLPELFVSIKQAVDEQRSPGRFLLTGSANALLLPRLSDSLAGRMESVRLMTLSECEIQGRQPSFLIKLLREEAPSTQDIRVRDHLLQRLVTGCFPEPLQRANERRRQAWYQQYTSTLIQRDIRDLTHIDHPDLMAKLLKLTAFYAGKLVNLTELGGKLGLDRLTIKKYMALLEQLFLVEQLPAWHSNEYKRLVKTPKLHPVDTGMMCAVRGLNQERLLKQPGDFGLVLESFVYNELRKQSVWIDEPLNFYHYRDKDKVEVDVVIENTMGDCFAIEIKAAATLNTKDFTGLKRFQSVAGDRFKIGVLLYDGDHTTAFGDNLYAVPVGALWS”, the “soluble on expression in E. coli” value is reported as “not soluble”. In the case of “MSLEIGEKLRNLRIQKNLTQEELGERTDLSKGYISQLERDLSSPSMETFFSILEVLGVTPEQFFSQQPLEQKIVYNEEESTLYYDEEHGYELKWLIPASNEKEMEPVIITFDKNGEYKTFEPSLSETFIYVIDGSIRLTLGEATYIAKKGQTMYYQATEPHQISNNGRGKSRALIVATESYLEGGSHHHHHH”, the “soluble on expression in E. coli” value is reported as “soluble”. With “MADENHVRLSEVQLIQSEFGHSLEECYKLAVQYYKKEHVGKQEPVGYEDRIKLLSLSKQVQHGEISDEFDNAGWLDITGNDVNKAWRELGSLSRDEAMASFVFLVDRVCPPFKGFIADKKAIKDAELKEFAPQVTEQSAQPPSLQQVDQRLFEDQRKQIQEALNAQTFHQFSAYAQEQFPGQPEQQTTLIRQLQEQHYQQYMSQVYAQQSTTPNGAEMNPEESHQHQIRRDDDSDVSDDEAGEDLPSNPAISPASLWNRQDINEFKANIKKDGHEGIIKVGHGETVTVRVPTHENGSCLFWEFATDHYDIGFGVYFEWTVADSNQVSVHVSESDDEEDYDEALEAEQAEAGGGGGGAAGQGGPGDVEAGAMQTRRVDPNKPRQDEIIPVYRRDCHEEVYAGSHRYPGRGIYLLKFDNSYSLWRSKTLYYRVYYSK” the “soluble on expression in E. coli” value was “soluble”. With “QPEDLAYVIFTSGSTGQPKGVAIEHRAARTTIDDINQRFEITDTDVVLGLSALSFDLSVWDIFGGLGAGATVVLPEEDRLRDPSYWLDLCDRHEITVWNSAPPLLEMLVDYAEIDPEAAAHALRNLRMVMLSGDWIPVTLPRRLKELAPNATVMSLGGATEASIWSICHRTSDADEHGPS” the “soluble on expression in E. coli” value was “not soluble”. For “MSAAAAPDTARSGRWRVDTDPERVERDLTCLVLTLVELVRQLVERQCVRRMDQGDLSDEQIETLGLTLMRLEEAMTELCERFDLSPSDLNLDLGPLGTLLPVD”, the “soluble on expression in E. coli” value was “not soluble”. For “MGSDKIHHHHHHNEKQDWVGTWTASPQPTWGTDFALPVKMVPKLENQTIRQTVRTSVGGRRFRIVLSNEYSNVPIQIGEIRAARAGEDSKITAGTDRAVTFGGQAKATVPAGAPLVSDPVELPLDALSRLSISVYLPQPTPIATFHWDGKQTAYIGDGNQTASETIAAAQTTDARTLVSEILVDAPANNGAVIAIGDSITDGNGATLDADNRWPDVLAERLVSKQVSVLNAGISGARLLDDAMGVKASARFNRDVLAQPGVKAVILLIGINDISWPGTPFAPEKSLPSLAALTTGYLQLAAQAHAHNLIIVGGTLTPFEGALSGTPLDAYYTPEKEALRQKVNNWIRTSGAFDAVVDFDLLLRDPLHPTRLLPEFDSGDHLHPGDKGNRAMAEAIDLGQLIKN”, the “soluble on expression in E. coli” value was “not soluble”. With “SLKVAIFDAFNGASGDMILASLLGVGISEEEIDEVVKALGIDVNYSMTTVSVRGISARRVEVEERDGERSFKEVLEIIRSSNLEEGVKKNAIAVFELIARAEGKVHGRDYREGVFHEVGADDAIFDVVCCVKAFENLKTAGYEFFATPVRAGSGFVEFSHGKYPVPPPAVLEILKSSNLEVVMDGEGELLTPTGAAILSHYCKPLKPFPIRVKEVSYGAGKRETDVPNVLRLILGETAFHDSIVVIETSVDDLSGEMIGYAMKKLLERDDVLDAVIIPAYGKKMRPASILKVISPTHRSEEVAAEVMRLTGSLGIRIIPVHHRLISERMEEVVKVEISGKEFDVRVKRSYPGFRHLKPEFDDIAVIADELNIPPHVVYREIVRKIVGAENADSNGQ” the “soluble on expression in E. coli” value was “soluble”. For “MTHLGGKVRSSGFLIPGSAPVSGTPPQGQGGLASSRVYEDSGGSLLSFSPMIHPNLAPLIAPSAYARLNLLNHCIFLEAFKEENSGQGLGGVQREVLFLKRDIIKQVIARIVAADSTLDLVNHGEPGREAPRRAQ”, the “soluble on expression in E. coli” value was “not soluble”. With “MMRIGIIARFDVAEAVEIAERVASFLLNRGVEITVDLKLTEELPQLREYGEDIRNMDADMILTIGGDGTILRTRSLIEDKEIPILGINMGTVGFLTEVDPENVFSALEAVLRGEYAVEKRTLLSVYHNDELPSALNEVVLMTRRPAKMLHIEISVDDEVVEELRADGIIIATPSGSTAYSMSAGGPIVDPRVEAFLIVPICPFKLSARPLVVSNKSVIRVKLLRKGKKAIAVIDGQYEEEINHMDEVIFRKSERKAHFVRLSKDFYRKVREKLIEGGIDSIKG” the “soluble on expression in E. coli” value was “soluble”. For “MAHHHHHHMSCLNVQPVQLPITNKFRNLPAGKPSHRHESTFCRFFSDTTEKECKGSRRNINHRNKSSIFDNVEENDIIDNTKINQYNNVKKRFVSNNSLEFKKTFQKNINYVPNEKYGKKNIPDVRNLYIFSRQELNSDTKERKSSKKISNYSLEKNPNKWGVDVLKYNLPSPKKIYRHVDNLTTCLVPKISEDSFIPKKNKKYYVTHLEKSLCPKENILLLNSKKKLIHLHQSKLEMNCVPKDYEQEINKNKPVFLERNLNNNLIPIVECKRRTFHVNDTCKNKQCSINFSCERKPSPFRSGKRIGYIFTRNDNPTFFF”, the “soluble on expression in E. coli” value was “not soluble”. For “MRIRIAHSPDSDDAFMFYPLVKGLIDTEGLEIEHVLADIETLNREALKGTYEVSAISFHAYPYVADKYAVLPSGGSIGEGYGPIVVAREELGTLKGKKIAVPGELTTAFLTLKLYEPDFEHVVIPFDRIIQAVLEGKVDAGLVIHEGQLSYKDYGLKKIVDLGEWWKEKYGLPLPLGCNVVRKDLGREVVKKIERLMRESVEYALKERKRALEYAINYARDLSEDLERTQKFVSMYVNERTVDYGEDGREAVRLLLRLGKERGIIKAEIPEKIFSDELF”, the “soluble on expression in E. coli” value was “soluble”. In the case of “MSEYREIITKAVVAKGRKFTQCTNTISPEKKPSSILGGWIINHKYDAEKIGKTVEIEGYYDINVWYSYADNTKTEVVTERVKYVDVIKLRYRDNNYLDDEHEVIAKVLQQPNCLEVTISPNGNKIVVQAEREFLAEVVGETKVVVEVNPDWEEDDEEDWEDELDEELEDINPEFLVGDPEELEHHHHHH”, the “soluble on expression in E. coli” value is reported as “soluble”. In the case of “VRWIGLSTGLVSAMLVAGLVACGSNSPASSPAGPTQGARSIVVFAAASLQSAFTQIGEQFKAGNPGVNVNFAFAGSSELATQLTQGATADVFASADTAQMDSVAKAGLLAGHPTNFATNTMVIVAAAGNPKKIRSFADLTRPGLNVVVCQPSVPCGSATRRIEDATGIHLNPVSEELSVTDVLNKVITGQADAGLVYVSDALSVATKVTCVRFPEAAGVVNVYAIAVLKRTSQPALARQFVAMVTAAAGRRILDQSGFAKP”, the “soluble on expression in E. coli” value is reported as “not soluble”.
